The values that follow come from patent US20250223358A1 (ANTENGENE BIOLOGICS, published 2025).

Numbering of substitutions follows the chain as printed. Read-outs that look alike come from different tables or passages of the source.

Experiment [1] deals with T1, human CD3 (human, UniProt P07766 23-207; P04234 22-171; P09693 23-182).
T1 construct: whole, on cells; also called hCD3; CD3 on Jurkat cells
Nature of the experiment: FACS on HEK293T-hCD3mix cells.

The target of the next experiment is T2, cynomolgus CD3 (cynomolgus (Macaca fascicularis), UniProt Q95LI5 22-198; Q95LI8 22-171; Q95LI7 23-181).
T2 construct: whole, on cells; composition of the 'mix' not defined; also called cynoCD3
Kind of experiment: FACS on 293F-cynoCD3mix cells.

In experiment [2] the target is T1, human CD3. Kind of experiment: FACS on Jurkat cells.
The target in experiment [3] is T1, human CD3. Nature of the experiment: FACS on Jurkat cells. The source holds these as a separate data set.
The target of experiment [4] is T1, human CD3. Kind of experiment: FACS on Jurkat cells. This is another data set of the same source.
Experiment [5] concerns the target T1, human CD3. Kind of experiment: cell-based or functional assay.
Experiment [6] addresses T1, human CD3. Kind of experiment: FACS on Jurkat cells. This is another data set of the same source.
Experiment [7] concerns the target T1, human CD3. Nature of the experiment: cell-based or functional assay. This is another data set of the same source.
The target of experiment [8] is T1, human CD3. Kind of experiment: cell-based or functional assay. This is another data set of the same source.

T2 sequence (Q95LI5 22-198, chain 1 of 3): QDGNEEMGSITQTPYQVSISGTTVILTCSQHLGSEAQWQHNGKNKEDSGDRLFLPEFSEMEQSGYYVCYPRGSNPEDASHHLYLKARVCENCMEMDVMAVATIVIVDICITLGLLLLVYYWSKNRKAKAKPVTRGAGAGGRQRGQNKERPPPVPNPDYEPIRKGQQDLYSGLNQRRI
T2 sequence (Q95LI8 22-171, chain 2 of 3): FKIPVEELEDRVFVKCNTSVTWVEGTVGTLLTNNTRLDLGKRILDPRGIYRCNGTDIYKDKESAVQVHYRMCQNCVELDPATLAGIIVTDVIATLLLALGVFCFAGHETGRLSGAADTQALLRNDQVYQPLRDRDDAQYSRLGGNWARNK
T2 sequence (Q95LI7 23-181, chain 3 of 3): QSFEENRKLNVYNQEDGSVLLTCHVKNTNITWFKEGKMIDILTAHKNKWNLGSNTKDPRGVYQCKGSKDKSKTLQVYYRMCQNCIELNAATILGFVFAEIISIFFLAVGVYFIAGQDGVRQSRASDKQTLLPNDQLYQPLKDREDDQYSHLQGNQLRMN
T1 sequence (P07766 23-207, chain 1 of 3): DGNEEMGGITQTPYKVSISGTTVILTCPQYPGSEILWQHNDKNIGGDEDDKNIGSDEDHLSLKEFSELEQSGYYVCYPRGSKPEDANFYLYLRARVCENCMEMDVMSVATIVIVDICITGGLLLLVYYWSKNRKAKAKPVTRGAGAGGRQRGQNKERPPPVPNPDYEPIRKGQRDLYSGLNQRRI
T1 sequence (P04234 22-171, chain 2 of 3): as the sequence (Q95LI8 22-171, chain 2 of 3) above, with V5I, K15N, V20I, T32S, N33D, N34I, A64T, N74S, L83V, R141H counted along it
T1 sequence (P09693 23-182, chain 3 of 3): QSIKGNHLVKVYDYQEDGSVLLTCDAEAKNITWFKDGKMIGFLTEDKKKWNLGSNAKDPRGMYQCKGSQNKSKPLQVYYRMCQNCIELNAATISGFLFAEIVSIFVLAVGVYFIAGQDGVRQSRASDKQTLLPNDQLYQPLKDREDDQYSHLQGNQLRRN

B1: 7-D9-G10-H2 (antibody, V domains shown)
VH: EVQLQQSGPELVKPGASVKISCKASGYSFTGYFMNWVKQSHGKSLEWIGRFNPYNGDTFYNQNFKGKATLTVDKSSSTAHMELRSLTSEDSAVYYCARGDYWGQGTTLTVSS
VL: not shown
notes: mouse monoclonal (hybridoma) antibody
As to B1, the “FACS MFI” value in the experiment with human CD3 [1] came out at 51000 MFI.

B2: 7-D8-G12-E4 (antibody, V domains shown)
VH: EVKLVESGGGLVKPGGSLKLSCAASGFTFSSYPMSWVRQTPAKRLEWVATISSGGGNTYYPDSVKGRFTISRDNARNTLYLQMSSLRSEDTAMYYCARGLYWYFDVWGAGTTVTVSS
VL: DIVLTQSPLSLPVSLGDQASISCRSSQSIAHSNGDTYLEWYLQNPGQSPKLLIYKVSNRISGVPDRFSGSGSGTDFTLKISRVEAEDLGVYYCFQGSHVPYTFGGGTKLEIK
notes: as for B1
Turning to B2, the “FACS MFI” value in the experiment with human CD3 [1] was found to be 65200 MFI.

B3: 3-C6-C11-F12 (antibody, V domains shown)
VH: EVHLVESGGGLVQPGGSRKLSCAGSGFTFSTYGMHWVRQAPEKGLEWVAYISNGGSTIYYADSVKGRFTISRDNPNDTLFLHMTSLGSEDTAMYYCARPTWGGFAYWGQGTLVTVSA
VL: B2 VL
notes: as for B1
For the molecule B3, the “FACS MFI” value with human CD3 [1] came out at 21800 MFI.

B4: 124E3D6 (antibody, V domains shown)
VH: QVQLQQPGTELVKPGASVKLSCKASGYTFTSYWMHWVKQRPGQGLEWIGNINPSNGDTNYNEKFKSKATLTVDKSSSTAYMQLSSLTSEDSAVYYCARDRSSQYYFDYWGQGTTLTVSS
VL: DIVMSQSPSSLAVSAGEKVTMSCKSSQSLLNSRTRKNYLAWYQQKPGQSPKLLIYWASTRESGVPDRFTGSGSGTDFTLTISSVQAEDLAVYYCKQSYNLRTFGGGTKLEIK
notes: as for B1
For B4, the “FACS MFI” value was determined as 400 MFI with cynomolgus CD3 and 126 MFI in the experiment with human CD3 [2].

B5: 127E2D3 (antibody, V domains shown)
VH: B4 VH with Q43E, N52Y, S54G, N55S, G56S, D57S, T58I
VL: B4 VL with K95T
notes: as for B1
Consider B5, for which the results for the “FACS MFI” value with cynomolgus CD3 and with human CD3 [2] were 1920 MFI and 930 MFI, respectively.

B6: 140D2B10 (antibody, V domains shown)
VH: B4 VH with D57E, T58S, S91Y
VL: B4 VL with N99T
notes: as for B1
For B6, the “FACS MFI” value came to 2040 MFI in the experiment with cynomolgus CD3 and 872 MFI in the experiment with human CD3 [2].

B7: 147E11E2 (antibody, V domains shown)
VH: B4 VH with A16T, D57A
VL: B4 VL with T34S, K95T, N99T
notes: as for B1
As to B7, the “FACS MFI” value with cynomolgus CD3 was 2530 MFI; with human CD3 [2], 2450 MFI.

B8: 133B4C7 (antibody, V domains shown)
VH: B4 VH with Y60F
VL: B4 VL with K24N, N99T
notes: as for B1
Turning to B8, the “FACS MFI” value is 1780 MFI with cynomolgus CD3 and 681 MFI in the experiment with human CD3 [2].

B9: 147C6F3 (antibody, V domains shown)
VH: B4 VH with T30D, I51L, D57E, T58I, S66H, A97S
VL: B4 VL with M21L, P46S, I54M, S82T, S83N, N99I
notes: as for B1
Turning to B9, the “FACS MFI” value came out at 2230 MFI with cynomolgus CD3 and 1860 MFI with human CD3 [2].

B10: 126A11A4 (antibody, V domains shown)
VH: B4 VH with G42E, S75A, S77N, A97G
VL: B4 VL with Y93F, Y98F, N99I
notes: as for B1
As for B10, the “FACS MFI” value with cynomolgus CD3 worked out at 2220 MFI; with human CD3 [2] it was 1620 MFI.

B11: 2-F12-A6-G2 (antibody, V domains shown)
VH: EVQLVESRPGLVAPSQSLSITCTVSGFSLTSYGVSWVRQPPGKGLEWLGVIWGDGNTNYNSDLKTSLSISKDNSKSQVFLKLDSLQTDDTATYYCAKVSYWYFDVWGTGTTVTVSS
VL: DIQLTQPPASLSASVGETVTITCRASENIYSYLAWYQQKQGKSPQLLVYNAKTLPEGVPSRFSGSGSGTQFSLKINSLQPEDFGTYYCQHHYGTPPTFGTGTKLELK
notes: as for B1
Turning to B11, the “FACS MFI” value with human CD3 [1] amounted to 53800 MFI.

B12: ch40-C12-C10-E9 (antibody, V domains shown)
VH: EVQLQLSGPELVKPGASVKMSCKASGYTFSSYVIHWVKQKPGQGLEWIGYINPYNDVIKYNEKFKGKATLTSDKSSSTAYMELSSLTSEDSAVYYCARDSYYSYDGFAYWGQGTLVTVSA
VL: QIVLTQSPAIMSASPGEKVTMTCSASSSVSYMHWYQQKSGTSPKRWIYDTSKLASGVPARFSGSGSGTSYSLTISSMEAEDAATYYCQQWSSNPPTFGGGTKVEIK
For orientation: EC50 means the midpoint of the concentration-response curve. For B12, in the experiment with human CD3 [3], the EC50 came to 0.41 nM and the “Top FACS signal” value was found to be 2940. Further, in the experiment with human CD3 [4], the half-maximal effective concentration (EC50) stood at 0.45 nM and the “Top FACS signal” value stood at 1620. In the experiment with human CD3 [5], the “EC50_Fold change (Jurkat-NFAT-luciferase activation, normalized to ch40-C12-C10-E9)” value came to 1 fold and the “Top signal_Fold change (Jurkat-NFAT-luciferase activation, normalized to ch40-C12-C10-E9)” value was determined as 1 fold. Besides, in the experiment with human CD3 [6], the EC50 was 1.01 nM and the “Top FACS signal” value amounted to 2540. Also, in the experiment with human CD3 [7], the “EC50_Fold change (Jurkat-NFAT-luciferase activation, normalized to ch40-C12-C10-E9)” value was determined as 1 fold and the “Top FACS signal_Fold change (Jurkat-NFAT-luciferase activation, normalized to ch40-C12-C10-E9)” value is 1 fold. For the same molecule, in the experiment with human CD3 [8], the “EC50 (activation of Jurkat-NFAT-Luc cells)” value was determined as 24.2 nM and the “Top FACS signal (activation of Jurkat-NFAT-Luc cells)” value was found to be 810.

B13: 40-C12-C10-E9 (antibody, V domains shown)
VH: B12 VH
VL: B12 VL
notes: as for B1
For the molecule B13, the “FACS MFI” value with human CD3 [1] stood at 13100 MFI.

B14: ch8-B12-F9-B11 (antibody, V domains shown)
VH: EVQLVESGGGIVKPGGSRKLSCAASGFTFSDYGMHWVRQAPEKGLEWIAYISSASGKIYYADTVKGRFTISRDNAKNILFLQMTSLRSEDTAMYYCARVLRWSVNYVMDYWGQGTSVTVSS
VL: DIVMTQSPSSLAVSAGEKVTMNCESSQSVLYSSNQKNYLAWYQQKPGQSPKLLIYWASTRESGVPDRFTGTGSGTDFTLTISSVQAEDLAVYYCHQYLSSWTFGGGTKLEIK
Turning to B14, in the experiment with human CD3 [6], the half-maximal effective concentration (EC50) came to 18 nM and the “Top FACS signal” value is 2720. Moreover, in the experiment with human CD3 [8], the “EC50 (activation of Jurkat-NFAT-Luc cells)” value amounted to 11.3 nM and the “Top FACS signal (activation of Jurkat-NFAT-Luc cells)” value amounted to 457.
